Experimental data taken from patent US5831007, “Human receptor for interleukin-12” (Hoffmann-La Roche Inc., dated 1998).
Values belong to the binder of their own block, whether it stands above or below them.

How the values were obtained:
[1] = target: T1, Recombinant human low affinity IL-12 receptor protein (clone No. 5) expressed in COS cells (human); experiment: equilibrium binding of labeled IL-12 to COS cells electroporated with clone number 5, Scatchard, single site (FIG. 19B)
Procedure: (§1) Binding assays with labeled IL-12 or labeled 2-4E6 antibody were run as described hereinabove under anti human IL-12 receptor antibody. The binding data were analyzed and Kd values were calculated according to Scatchard, using the LIGAND program discussed hereinabove under anti human IL-12 receptor antibody. In vivo labeling (6 hours) of COS cells (3 ×10^5 cells per 35 mm diameter tissue culture dish) with […] was performed 3 days after transfection as described (Molecular Cloning Manual). Cells were washed in PBS and lysed in CHAPS lysis buffer (10 mM CHAPS-300 mM Nacl-50 mM Tris-HCl pH 7.4-2 mg/ml lodoacetamide-0.17 mg/ml PMSF), precleared by incubation with protein G Sepharose beads (50 µl packed beads per ml, Genex) and normal mouse serum (25% final concentration) at 4° C. overnight. […]
(§2) IL-12 receptor cDNA (clone number 5) (SEQ ID NO:1) was electroporated into COS cells and equilibrium binding of labeled human and murine IL-12 to the cells was performed and analyzed as described (R. Chizzonite, et al., 1992, J. Immunol., 148:3117). […] After transformation by the method of Scatchard, the equilibrium binding data was best described by a single receptor site model as determined by the LIGAND program. The site numbers indicated in FIG. 19 are calculated assuming that all cells are expressing receptors. […]

[2] = target: Human IL-12 receptor subunit monomer (on murine CTLL transfectants, which only express monomers); monomer form … (human); experiment: IL-12 binding to murine CTLL transfectants stably expressing the IL-12 receptor subunit (monomers only)
[3] = target: T1, Recombinant human low affinity IL-12 …; experiment: IL-12 binding to intact transfected COS cells; told in the discussion
[4] = target: T1, Recombinant human low affinity IL-12 …; experiment: IL-12 binding to transfected COS cells; told in the discussion
[5] = target: T1, Recombinant human low affinity IL-12 …; experiment: steady state binding of 125I-IL-12 to rIL-12R expressing COS cells, Scatchard (FIGS. 4A and 4B)
Procedure: The characteristics of the protein bound by mAb 2-4E6 fulfilled standard criterion for an IL-12R and therefore 2-4E6 was used in an expression cloning strategy to isolate a cDNA coding for the human IL-12R. A cDNA coding for the human IL-12R was isolated by this method (U. Gubler and A. O. Chua, unpublished observations). The IL-12R cDNA was engineered in a mammalian cell expression vector, transfected into COS-7 cells and the specificity for binding of ^125I-IL-12 and ^125I-2-4E6 was determined. […] This low affinity IL-12 binding site corresponds to the low affinity site seen in the binding assays with human cells that naturally express IL-12R. The binding of ^125I-2-4E6 to, rIL-12R expressed in the COS cells is saturable and specific and identifies approximately 500,000 sites/cell (FIGS. 4C and 4D).
For FIGS. 4A and 4B, COS cells were transfected with a plasmid expressing human rIL-12R as. described. Three days later, transfected cells (1×10^4 cells) were incubated for 2 hrs at room temperature with increasing concentration of ^125I-IL-12 in the absence (o) or presence (□) of 50 nM unlabeled IL-12. Total (o) and non-specific (□) cell bound radioactivity were determined as described. Specific binding of ^125I-IL-12 (▲) was calculated by subtracting non-specific binding from total binding.

[6] = target: T1, Recombinant human low affinity IL-12 …; experiment: equilibrium binding of labeled IL-12 to COS cells electroporated with clone number 5, Scatchard, single site (FIG. 19A)
Procedure: as §1, §2

Kd [1]: 2.1 nM
B1: Recombinant murine IL-12 (ligand)
chain 1: MWELEKDVYVVEVDWTPDAPGETVNLTCDTPEEDDITWTSDQRHGVIGSGKTLTITVKEFLDAGQYTCHKGGETLSHSHLLLHKKENGIWSTEILKNFKNKTFLKCEAPNYSGRFTCSWLVQRNMDLKFNIKSSSSSPDSRAVTCGMASLSAEKVTLDQRDYEKYSVSCQEDVTCPTAEETLPIELALEARQQNKYENYSTSFFIRDIIKPDPPKNLQMKPLKNSQVEVSWEYPDSWSTPHSYFSLKFFVRIQRKKEKMKETEEGCNQKGAFLVEKTSTEVQCKGGNVCVQAQDRYYNSSCSKWACVPCRVRS
chain 2: RVIPVSGPARCLSQSRNLLKTTDDMVKTAREKLKHYSCTAEDIDHEDITRDQTSTLKTCLPLELHKNESCLATRETSSTTRGSCLPPQKTSLMMTLCLGSIYEDLKMYQTEFQAINAALQNHNHQQIILDKGMLVAIDELMQSLNHNGETLRQKPPVGEADPYRVKMKLCILLHAFSTRVVTINRVMGYLSSA

Kd [2]: ≥ 50 nM
Kd [3]: 2 to 5 nM
Kd [4]: ~3 nM
Kd [5]: 2 to 6 nM
Kd [6]: 3.4 nM
B2: Recombinant human IL-12 (Interleukin-12) (ligand)
chain 1: IWELKKDVYVVELDWYPDAPGEMVVLTCDTPEEDGITWTLDQSSEVLGSGKTLTIQVKEFGDAGQYTCHKGGEVLSHSLLLLHKKEDGIWSTDILKDQKEPKNKTFLRCEAKNYSGRFTCWWLTTISTDLTFSVKSSRGSSDPQGVTCGAATLSAERVRGDNKEYEYSVECQEDSACPAAEESLPIEVMVDAVHKLKYENYTSSFFIRDIIKPDPPKNLQLKPLKNSRQVEVSWEYPDTWSTPHSYFSLTFCVQVQGKSKREKKDRVFTDKTSATVICRKNASISVRAQDRYYSSSWSEWASVPCS
chain 2: RNLPVATPDPGMFPCLHHSQNLLRAVSNMLQKARQTLEFYPCTSEEIDHEDITKDKTSTVEACLPLELTKNESCLNSRETSFITNGSCLASRKTSFMMALCLSSIYEDLKMYQVEFKTMNAKLLMDPKRQIFLDQNMLAVIDELMQALNFNSETVPQKSSLEEPDFYKTKIKLCILLHAFRIRAVTIDRVMSYLNAS
